# According to publication PMC9411592:
# Where two headings read alike, the source gives them in different places.
# Assays:
# [1] = target: N-terminal Flag-tagged LRRC33 with its C-terminal transmembrane domain substituted with that of GARP (WT); assay: flow cytometry on cells; conditions: for response: n = 3, mean ± s.d., read off a plot
# [2] = target: N-terminal Flag-tagged LRRC33 with its C-terminal transmembrane domain substituted with that of GARP (WT); assay: flow cytometry on cells; conditions: n = 3, mean ± s.d., read off a plot
# [3] = target: L-TGF-β1 WT with the furin cleavage site between LAP and the growth factor replaced with an HA tag (UniProt P01137); assay: flow cytometry on cells
# [4] = target: L-TGF-β1 C4S/R249A (the 'WT' of the SPR assay) (human); assay: SPR; Biacore T200, 25 °C; L-TGF-β1 (C4S/R249A, or + RGEGATG) immobilised on a CM5 chip by amine coupling; integrin headpieces injected at 20 μl/min in 20 mM HEPES pH 7.5, 150 mM NaCl, 1 mM MgCl2, 1 mM CaCl2; 1:1 Langmuir model
# [5] = Expi293F cells co-transfected with L-TGF-β1 and LRRC33, anti-HA staining
Substance,other: percentage of L-TGF-β+ (anti-HA+) subset [1],response ([1]; parent: est. 21000),other results
L-TGF-β1 WT with the furin cleavage site between LAP and the growth factor replaced with an HA tag (from UniProt P01137) H317I,9.58%,2800 MFI,response ([2]; parent: est. 21000): 3600 MFI
L-TGF-β1 WT with the furin cleavage site between LAP and the growth factor replaced with an HA tag (from UniProt P01137) H317L,–,6000 MFI,–
L-TGF-β1 WT with the furin cleavage site between LAP and the growth factor replaced with an HA tag (from UniProt P01137) K309R,–,15000 MFI,–
L-TGF-β1 WT with the furin cleavage site between LAP and the growth factor replaced with an HA tag (from UniProt P01137) K309T,–,5500 MFI,–
L-TGF-β1 WT with the furin cleavage site between LAP and the growth factor replaced with an HA tag (from UniProt P01137) K309T; H317L,15.2%,–,response ([2]; parent: est. 21000): 3400 MFI
L-TGF-β1 WT with the furin cleavage site between LAP and the growth factor replaced with an HA tag (from UniProt P01137) L303A,–,26000 MFI,–
L-TGF-β1 WT with the furin cleavage site between LAP and the growth factor replaced with an HA tag (from UniProt P01137) L303S,–,25000 MFI,–
L-TGF-β1 WT with the furin cleavage site between LAP and the growth factor replaced with an HA tag (from UniProt P01137) W301A,–,–,"other: percentage of L-TGF-β+ (anti-HA+) subset [1, 5]: 28.7%; response ([1]; Expi293F cells, parent: est. 22000): 5300 MFI"
L-TGF-β3 WT with HA tag in place of the furin cleavage site (from UniProt P10600) R328W; T336K; L344H,21.5%,–,response ([2]; parent: est. 2700): 5500 MFI
L-TGF-β3 WT with HA tag in place of the furin cleavage site (from UniProt P10600) T336K; L344H,14.4%,–,response ([2]; parent: est. 2700): 4000 MFI
N-terminal Flag-tagged LRRC33 with its C-terminal transmembrane domain substituted with that of GARP (WT) Y174R,–,–,"other: percentage of L-TGF-β+ (anti-HA+) subset [3, 5]: 23.1%; response ([3]; Expi293F cells, n = 3, mean ± s.d., parent: est. 22000, read off a plot): 4000 MFI"
integrin αVβ8-6DLL headpiece (the disulfide-linked loop of β8 substituted by that of β6) (complex),–,–,Kd [4]: 19.8 nM
αVβ8-IgG1 Fc (heterotetramer of αVβ8 linked by the IgG1 Fc fragment on the C-terminus of β8) (Fc fusion),–,–,Kd [4]: 5.75 nM

# Second part, led by results:
other: percentage of L-TGF-β+ (anti-HA+) subset [1],response ([1]; parent: est. 21000),Substance,other results
–,16000 MFI,L-TGF-β1 WT with the furin cleavage site between LAP and the growth factor replaced with an HA tag (from UniProt P01137) I300L,–
–,16000 MFI,L-TGF-β1 WT with the furin cleavage site between LAP and the growth factor replaced with an HA tag (from UniProt P01137) P296A,–
–,13000 MFI,L-TGF-β1 WT with the furin cleavage site between LAP and the growth factor replaced with an HA tag (from UniProt P01137) Q306T,–
–,14000 MFI,L-TGF-β1 WT with the furin cleavage site between LAP and the growth factor replaced with an HA tag (from UniProt P01137) W301R,–
12.3%,–,L-TGF-β1 WT with the furin cleavage site between LAP and the growth factor replaced with an HA tag (from UniProt P01137) W301R; K309T; H317L,response ([2]; parent: est. 21000): 3500 MFI
–,28000 MFI,L-TGF-β1 WT with the furin cleavage site between LAP and the growth factor replaced with an HA tag (from UniProt P01137) Y307H,–
44.6%,–,L-TGF-β2 WT with HA tag in place of the furin cleavage site (from UniProt P61812) I350H,response ([2]; parent: est. 2800): 11000 MFI
